According to article PMC7881117 (Nature Communications, 2021):

Target: T1, full-length p53 (UniProt P04637 1-393)
T1 construct: A fluorescein-labelled form was used in the ubiquitination assay only
Assay: SPR; p53 binding domain of MDM2 immobilised on a CM5 chip by amine coupling; full-length p53 at 0.125 to 2 μM flowed over; BIAcore 3000
Details: both partners purified

T1 sequence (P04637 whole entry): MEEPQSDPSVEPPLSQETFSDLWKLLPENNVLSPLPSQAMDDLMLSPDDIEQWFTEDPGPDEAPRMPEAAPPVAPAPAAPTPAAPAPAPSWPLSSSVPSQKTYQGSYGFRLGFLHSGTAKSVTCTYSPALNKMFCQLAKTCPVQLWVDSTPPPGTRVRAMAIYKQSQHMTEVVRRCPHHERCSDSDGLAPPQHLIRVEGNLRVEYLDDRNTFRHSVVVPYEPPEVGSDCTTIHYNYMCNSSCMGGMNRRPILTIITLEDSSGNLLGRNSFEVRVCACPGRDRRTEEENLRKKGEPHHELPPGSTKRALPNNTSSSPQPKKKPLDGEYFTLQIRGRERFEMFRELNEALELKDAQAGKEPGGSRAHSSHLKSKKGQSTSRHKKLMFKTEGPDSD

B1: MDM2 p53 binding domain (domain or fragment)
chain: TLVRPKPLLLKLLKSVGAQKDTYTMKEVLFYLGQYIMTKRLYDEKQQHIVYCSNDLLGDLFGVPSFSVKEHRKIYTMIYRNLVV
A Kd of 600 ± 100 nM was found for B1 in this work.
